± gives the uncertainty stated by the source.
B1: Ankyrin repeat and SAM domain-containing protein 6, residues 774 to 836; numbered along this chain, Q68DC2 (parent)
chain: DEDELTGILKKLSLEKYQPIFEEQEVDMEAFLTLTDGDLKELGIKTDGSRQQILAAISELNAG

Variants of: B1
Assay: abundance fitness (aPCA) (normalised: wild type 0, dead -1); higher = more abundant; growth selection in yeast, the domain comes from the species named
Conditions: Homo sapiens

Variant	abundance fitness
DEDELTGILKKLSLEKYQPIFEEQEVDMEAFLTLTDGDLKELGIKTDGSPQQILAAISELNAG	-0.649 ± 0.091
DEDELTGILKKLSLEKYQPIFEEQEVDMEAFLTLTDGDLKELGIKTDGSNQQILAAISELNAG	-0.653 ± 0.099
DEDELTGILKKLSLEKYQPIFEEQEVDMEAFLTLTDGDLKELGIKTDGSIQQILAAISELNAG	-0.292 ± 0.09
DEDELTGILKKLSLEKYQPIFEEQEVDMEAFLTLTDGDLKELGIKTDGSFQQILAAISELNAG	-1 ± 0.11
DEDELTGILKKLSLEKYQPIFEEQEVDMEAFLTLTDGDLKELGIKTDGSEQQILAAISELNAG	-0.526 ± 0.058
DEDELTGILKKLSLEKYQPIFEEQEVDMEAFLTLTDGDLKELGIKTDGSYQQILAAISELNAG	-0.834 ± 0.084
DEDELTGILKKLSLEKYQPIFEEQEVDMEAFLTLTDGDLKELGIKTDGSKQQILAAISELNAG	-0.582 ± 0.087
DEDELTGILKKLSLEKYQPIFEEQEVDMEAFLTLTDGDLKELGIKTDGSHQQILAAISELNAG	-0.527 ± 0.11
DEDELTGILKKLSLEKYQPIFEEQEVDMEAFLTLTDGDLKELGIKTDGSVQQILAAISELNAG	-0.492 ± 0.047
DEDELTGILKKLSLEKYQPIFEEQEVDMEAFLTLTDGDLKELGIKTDGSAQQILAAISELNAG	-0.494 ± 0.055
DEDELTGILKKLSLEKYQPIFEEQEVDMEAFLTLTDGDLKELGIKTDGSWQQILAAISELNAG	-0.706 ± 0.069
DEDELTGILKKLSLEKYQPIFEEQEVDMEAFLTLTDGDLKELGIKTDGSCQQILAAISELNAG	-0.363 ± 0.072
DEDELTGILKKLSLEKYQPIFEEQEVDMEAFLTLTDGDLKELGIKTDGSMQQILAAISELNAG	-0.722 ± 0.088
DEDELTGILKKLSLEKYQPIFEEQEVDMEAFLTLTDGDLKELGIKTDGSLQQILAAISELNAG	-0.623 ± 0.051
DEDELTGILKKLSLEKYQPIFEEQEVDMEAFLTLTDGDLKELGIKTDDSRQQILAAISELNAG	-0.016 ± 0.058
DEDELTGILKKLSLEKYQPIFEEQEVDMEAFLTLTDGDLKELGIKTDKSRQQILAAISELNAG	-0.131 ± 0.088
DEDELTGILKKLSLEKYQPIFEEQEVDMEAFLTLTDGDLKELGIKTDMSRQQILAAISELNAG	-0.113 ± 0.07
DEDELTGILKKLSLEKYQPIFEEQEVDMEAFLTLTDGDLKELGIKTDFSRQQILAAISELNAG	-0.339 ± 0.082
DEDELTGILKKLSLEKYQPIFEEQEVDMEAFLTLTDGDLKELGIKTDWSRQQILAAISELNAG	-0.424 ± 0.043
DEDELTGILKKLSLEKYQPIFEEQEVDMEAFLTLTDGDLKELGIKTDSSRQQILAAISELNAG	0.007 ± 0.048
DEDELTGILKKLSLEKYQPIFEEQEVDMEAFLTLTDGDLKELGIKTDTSRQQILAAISELNAG	0.149 ± 0.058
DEDELTGILKKLSLEKYQPIFEEQEVDMEAFLTLTDGDLKELGIKTDQSRQQILAAISELNAG	-0.039 ± 0.053

Variant	abundance fitness
DEDELTGILKKLSLEKYQPIFEEQEVDMEAFLTLTDGDLKELGIKTDYSRQQILAAISELNAG	-0.321 ± 0.12
DEDELTGILKKLSLEKYQPIFEEQEVDMEAFLTLTDGDLKELGIKTDASRQQILAAISELNAG	-0.047 ± 0.044
DEDELTGILKKLSLEKYQPIFEEQEVDMEAFLTLTDGDLKELGIKTDLSRQQILAAISELNAG	-0.042 ± 0.046
DEDELTGILKKLSLEKYQPIFEEQEVDMEAFLTLTDGDLKELGIKTDESRQQILAAISELNAG	0.107 ± 0.054
DEDELTGILKKLSLEKYQPIFEEQEVDMEAFLTLTDGDLKELGIKTDGWRQQILAAISELNAG	-0.391 ± 0.073
DEDELTGILKKLSLEKYQPIFEEQEVDMEAFLTLTDGDLKELGIKTDGHRQQILAAISELNAG	0.009 ± 0.075
DEDELTGILKKLSLEKYQPIFEEQEVDMEAFLTLTDGDLKELGIKTDGCRQQILAAISELNAG	0.096 ± 0.059
DEDELTGILKKLSLEKYQPIFEEQEVDMEAFLTLTDGDLKELGIKTDGMRQQILAAISELNAG	-0.068 ± 0.067
DEDELTGILKKLSLEKYQPIFEEQEVDMEAFLTLTDGDLKELGIKTDGTRQQILAAISELNAG	-0.054 ± 0.057
DEDELTGILKKLSLEKYQPIFEEQEVDMEAFLTLTDGDLKELGIKTDGYRQQILAAISELNAG	-0.242 ± 0.073
DEDELTGILKKLSLEKYQPIFEEQEVDMEAFLTLTDGDLKELGIKTDGNRQQILAAISELNAG	0.003 ± 0.062
DEDELTGILKKLSLEKYQPIFEEQEVDMEAFLTLTDGDLKELGIKTDGFRQQILAAISELNAG	-0.249 ± 0.07
DEDELTGILKKLSLEKYQPIFEEQEVDMEAFLTLTDGDLKELGIKTDGLRQQILAAISELNAG	-0.191 ± 0.051
DEDELTGILKKLSLEKYQPIFEEQEVDMEAFLTLTDGDLKELGIKTDGQRQQILAAISELNAG	-0.03 ± 0.056
DEDELTGILKKLSLEKYQPIFEEQEVDMEAFLTLTDGDLKELGIKTDGPRQQILAAISELNAG	-0.208 ± 0.073
DEDELTGILKKLSLEKYQPIFEEQEVDMEAFLTLTDGDLKELGIKTDGDRQQILAAISELNAG	0.157 ± 0.033
DEDELTGILKKLSLEKYQPIFEEQEVDMEAFLTLTDGDLKELGIKTDGRRQQILAAISELNAG	-0.192 ± 0.053
DEDELTGILKKLSLEKYQPIFEEQEVDMEAFLTLTDGDLKELGIKTDGVRQQILAAISELNAG	0.062 ± 0.041
DEDELTGILKKLSLEKYQPIFEEQEVDMEAFLTLTDGDLKELGIKTDGKRQQILAAISELNAG	-0.186 ± 0.081
DEDELTGILKKLSLEKYQPIFEEQEVDMEAFLTLTDGDLKELGIKTDGERQQILAAISELNAG	0.181 ± 0.044
DEDELTGILKKLSLEKYQPIFEEQEVDMEAFLTLTDGDLKELGIKTDGGRQQILAAISELNAG	-0.055 ± 0.033
